Measurements reported in article PMC7319049 (Nature, 2020).

B1: Arp7 (natural protein)
chain: MTLNRKCVVIHNGSHRTVAGFSNVELPQCIIPSSYIKRTDEGGEAEFIFGTYNMIDAAAEKRNGDEVYTLVDSQGLPYNWDALEMQWRYLYDTQLKVSPEELPLVITMPATNGKPDMAILERYYELAFDKLNVPVFQIVIEPLAIALSMGKSSAFVIDIGASGCNVTPIIDGIVVKNAVVRSKFGGDFLDFQVHERLAPLIKEENDMENMADEQKRSTDVWYEASTWIQQFKSTMLQVSEKDLFELERYYKEQADIYAKQQEQLKQMDQQLQYTALTGSPNNPLVQKKNFLFKPLNKTLTLDLKECYQFAEYLFKPQLISDKFSPEDGLGPLMAKSVKKAGASINSMKANTSTNPNGLGTSHINTNVGDNNSTASSSNISPEQVYSLLLTNVIITGSTSLIEGMEQRIIKELSIRFPQYKLTTFANQVMMDRKIQGWLGALTMANLPSWSLGKWYSKEDYETLKRDRKQSQATNATN
B2: Arp9 (natural protein)
chain: MAPFRQDSILIIYPRSQTTLVQFGLNEETFTVPELEIPTQIYRTTRQDGSYTYHSTNKDNKAELIKPIQNGEIIDISAFTQFLRLIFVSILSDRANKNQDAFEAELSNIPLLLITHHSWSQSDLEIITQYVFESLEINNLIQLPASLAATYSMISLQNCCIIDVGTHHTDIIPIVDYAQLDHLVSSIPMGGQSINDSLKKLLPQWDDDQIESLKKSPIFEVLSDDAKKLSSFDFGNENEDEDEGTLNVAEIITSGRDTREVLEERERGQKVKNVKNSDLEFNTFWDEKGNEIKVGKQRFQGCNNLIKNISNRVGLTLDNIDDINKAKAVWENIIIVGGTTSISGFKEALLGQLLKDHLIIEPEEEKSKREEEAKSVLPAATKKKSKFMTNSTAFVPTIEYVQCPTVIKLAKYPDYFPEWKKSGYSEIIFLGAQIVSKQIFTHPKDTFYITREKYNMKGPAALWDVQF
B3: Rtt102 (natural protein)
chain: MDPQTLITKANKVSYYGNPTSKESWRYDWYQPSKVSSNVQQPQQQLGDMENNLEKYPFRYKTWLRNQEDEKNLQRESCEDILDLKEFDRRILKKSLMTSHTKGDTSKATGAPSANQGDEALSVDDIRGAVGNSEAIPGLSAGVNNDNTKESKDVKMN
B4: Swi1 (natural protein)
chain: MDFFNLNNNNNNNNTTTTTTTTNNNNTNNNNTNNNNNPANNTNNNNSTGHSSNTNNNTNNNNTNTGASGVDDFQNFFDPKPFDQNLDSNNNNSNSNNNDNNNSNTVASSTNFTSPTAVVNNAAPANVTGGKAANFIQNQSPQFNSPYDSNNSNTNLNSLSPQAILAKNSIIDSSNLPLQAQQQLYGGNNNNNSTGIANDNVITPHFITNVQSISQNSSSSTPNTNSNSTPNANQQFLPFNNSASNNGNLTSNQLISNYAASNSMDRSSSASNEFVPNTSDNNNNSNNHNMRNNSNNKTSNNNNVTAVPAATPANTNNSTSNANTVFSERAAMFAALQQKQQQRFQALQQQQQQQQNQQQQNQQPQQQQQQQQNPKFLQSQRQQQQRSILQSLNPALQEKISTELNNKQYELFMKSLIENCKKRNMPLQSIPEIGNRKINLFYLYMLVQKFGGADQVTRTQQWSMVAQRLQISDYQQLESIYFRILLPYERHMISQEGIKETQAKRIFLQQFLQELLKKVQQQQQAAALANANNNINSASSAPTPAAPGASVPATAAPGTEAGIVPVSANTPKSLNSNININVNNNNIGQQQVKKPRKQRVKKKTKKELELERKEREDFQKRQQKLLEDQQRQQKLLLETKLRQQYEIELKKLPKVYKRSIVRNYKPLINRLKHYNGYDINYISKIGEKIDSNKPIFLFAPELGAINLHALSMSLQSKNLGEINTALNTLLVTSADSNLKISLVKYPELLDSLAILGMNLLSNLSQNVVPYHRNTSDYYYEDAGSNQYYVTQHDKMVDKIFEKVNNNATLTPNDSNDEKVTILVDSLTGNQLPTPTPTEMEPDLDTECFISMQSTSPAVKQWDLLPEPIRFLPNQFPLKIHRTPYLTSLKKIKDEIDDPFTKINTRGAEDPKVLINDQLSTISMILRNISFSDNNSRIMSRNFYLKRFISDLLWLVLIHPENFTCNRKILNFKKDLVIVLSNISHLLEIASSIDCLLILILVISFGQPKLNPMASSSSFGSESLTFNEFQLQWGKYQTFGVDILAKLFSLEKPNLNYFKSILLNKNTGNNLYDRNSNNNHKDKKLLRRLLNLYNDNNKNNNNRHNLLNDVVSFLFSAIPLQQVLSQSADPSLLIDQFSPVISQSLTSILVIVQKILPLSNEVFEISENNSDSNSNNNGNKDSSFNFNKNLPFVWLSSEENIGSGLLKLSEIILNINNSTSKNTLLQQQNYSKVLLPSINISCVQLIKCLVEKSICFENCLNNDPEILKKIASIPNLFPTDLEIFQLFTNPSVDIQIINQYQLLYNLKNDILTNLE
B5: Snf5 (natural protein)
chain: MNNQPQGTNSVPNSIGNIFSNIGTPSFNMAQIPQQLYQSLTPQQLQMIQQRHQQLLRSRLQQQQQQQQQTSPPPQTHQSPPPPPQQSQPIANQSATSTPPPPPAPHNLHPQIGQVPLAPAPINLPPQIAQLPLATQQQVLNKLRQQAIAKNNPQVVNAITVAQQQVQRQIEQQKGQQTAQTQLEQQRQLLVQQQQQQQLRNQIQRQQQQQFRHHVQIQQQQQKQQQQQQQHQQQQQQQQQQQQQQQQQQQQQQQQQQQQQQQQQQQQQGQIPQSQQVPQVRSMSGQPPTNVQPTIGQLPQLPKLNLPKYQTIQYDPPETKLPYPTYWSDKKADTDTLLYEQIIQRDKINKYSLIRETNGYDPFSIYGFSNKEYISRLWHTLKYYQDLKNTRMKSITSTSQKIPSASIWGNGYSGYGNGITNTTTRVIPQVEVGNRKHYLEDKLKVYKQAMNETSEQLVPIRLEFDQDRDRFFLRDTLLWNKNDKLIKIEDFVDDMLRDYRFEDATREQHIDTICQSIQEQIQEFQGNPYIELNQDRLGGDDLRIRIKLDIVVGQNQLIDQFEWDISNSDNCPEEFAESMCQELELPGEFVTAIAHSIREQVHMYHKSLALLGYNFDGSAIEDDDIRSRMLPTITLDDVYRPAAESKIFTPNLLQISAAELERLDKDKDRDTRRKRRQGRSNRRGMLALSGTSASNTSMNGVHNTVAAGNASSLPPGEILLPDIADIPRTFRTPVPSTLMPGGVDVGPSVESYELRNTTTYKSRPDRPKPVSPPCYIIDHIPGHSLLLSIKLPGKVNTKEEFAAAPNDTSSGTNAMLPSPESLKTKLNSNIRAGVTIPSIPNPIANHTVTNSPNPTLQPVIPGGAASKSVPTPSLPIAPPVAPHDSEATLLTNSNNGSSNNNTQNT

Key:
Snf2 = Snf2 (S. cerevisiae, UniProt P22082 1-1703); experiment: cryo-EM structure
Snf2, sequence (P22082 whole entry): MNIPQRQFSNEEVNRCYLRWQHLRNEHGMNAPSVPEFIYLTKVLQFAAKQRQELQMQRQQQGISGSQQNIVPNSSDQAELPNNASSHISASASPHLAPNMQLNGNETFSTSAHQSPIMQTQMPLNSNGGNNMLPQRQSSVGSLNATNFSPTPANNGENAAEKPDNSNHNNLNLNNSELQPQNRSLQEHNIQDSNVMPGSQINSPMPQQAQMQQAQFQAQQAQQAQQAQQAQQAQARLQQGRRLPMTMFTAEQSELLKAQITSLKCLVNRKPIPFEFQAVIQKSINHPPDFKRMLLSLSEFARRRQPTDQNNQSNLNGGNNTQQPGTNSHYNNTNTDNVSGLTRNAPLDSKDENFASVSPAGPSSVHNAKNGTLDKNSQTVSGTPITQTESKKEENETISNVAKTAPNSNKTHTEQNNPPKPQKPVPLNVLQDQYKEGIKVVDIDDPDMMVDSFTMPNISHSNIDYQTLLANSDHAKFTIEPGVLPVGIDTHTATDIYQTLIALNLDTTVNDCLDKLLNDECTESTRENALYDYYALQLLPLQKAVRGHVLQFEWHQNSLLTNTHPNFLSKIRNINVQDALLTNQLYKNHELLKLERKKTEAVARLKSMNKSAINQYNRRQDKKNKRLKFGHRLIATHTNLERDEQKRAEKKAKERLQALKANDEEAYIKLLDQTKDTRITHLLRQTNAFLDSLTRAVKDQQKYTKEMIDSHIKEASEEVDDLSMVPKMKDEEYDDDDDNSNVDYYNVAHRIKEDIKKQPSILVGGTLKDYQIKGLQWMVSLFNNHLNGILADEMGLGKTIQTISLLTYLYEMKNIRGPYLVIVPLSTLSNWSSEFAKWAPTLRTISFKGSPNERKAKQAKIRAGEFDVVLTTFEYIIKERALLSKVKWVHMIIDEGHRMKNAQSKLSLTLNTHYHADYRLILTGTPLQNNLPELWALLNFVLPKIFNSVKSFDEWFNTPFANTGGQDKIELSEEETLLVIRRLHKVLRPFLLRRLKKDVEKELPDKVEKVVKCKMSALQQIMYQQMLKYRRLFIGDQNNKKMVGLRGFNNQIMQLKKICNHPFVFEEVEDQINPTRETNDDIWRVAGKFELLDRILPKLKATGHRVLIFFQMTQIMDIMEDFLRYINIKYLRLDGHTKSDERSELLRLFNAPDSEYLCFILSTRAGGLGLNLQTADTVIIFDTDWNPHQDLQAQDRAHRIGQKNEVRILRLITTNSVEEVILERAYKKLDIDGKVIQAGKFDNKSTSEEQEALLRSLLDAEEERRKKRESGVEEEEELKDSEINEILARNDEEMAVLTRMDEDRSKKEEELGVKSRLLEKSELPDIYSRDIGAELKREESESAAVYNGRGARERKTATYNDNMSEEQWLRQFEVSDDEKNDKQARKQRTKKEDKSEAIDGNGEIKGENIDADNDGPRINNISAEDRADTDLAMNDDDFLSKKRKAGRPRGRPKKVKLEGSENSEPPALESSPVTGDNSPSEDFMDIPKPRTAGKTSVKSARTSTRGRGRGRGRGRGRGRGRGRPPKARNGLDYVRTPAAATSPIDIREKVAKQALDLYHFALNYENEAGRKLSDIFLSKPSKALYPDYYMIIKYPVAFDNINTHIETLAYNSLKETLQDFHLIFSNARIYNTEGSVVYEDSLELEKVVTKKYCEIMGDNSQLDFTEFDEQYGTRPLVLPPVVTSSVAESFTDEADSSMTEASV

Swi1 = target: B4; experiment: cryo-EM structure

binding result (Snf2) | binding result (Swi1) | Binder
binds | – | B1
binds | – | B2
binds | – | B3
binds | – | B4
– | binds | B5
